The source of these data is publication PMC7244744, “Vesicular transport mediates the uptake of cytoplasmic proteins into mitochondria in Drosophila melanogaster” (Nature Communications, 2020).

The data set deals with the molecule itself. Nature of the data set: SDS-PAGE and western blot with and without DTT; flight-muscle tissue homogenates of wild-type flies, mitochondrial fraction; monomer band and upper band (Dosmit*); analysed in the presence and absence of DTT. In general terms: In western blotting, separated proteins are transferred to a membrane and probed.

B1: Dosmit (downsizing mitochondria), endogenous in fly flight muscle (natural protein, UniProt Q9VAM6 1-133, looked up)
chain: MEPISHLVKSSLPNYLSSLPVPDSIGGWFKLSFKDWLALIPPTVVVAGLGYTAYLAYCPAARASCAAKNSGRCNNHIRKNEPKVVDMIDVEDIAEKAAFCRCWKTKNWPYCDGSHGEHNKQTGDNVGPIVIKK
notes: endogenous protein of flight muscle; Seen as monomer and dimer (Dosmit*) bands on western blots; the dimer band is reduced to the monomer by DTT; also called Dosmit* (dimer form); CG1458; source: endogenous, flight-muscle tissue homogenate of wild-type flies (mitochondrial fraction)
For B1, the “stoichiometry N” value turned out to be 2.

For orientation: stoichiometry N means the number of molecules, sites or subunits per partner or assembly.
